Test results reported in patent US20090117593A1, “T. Cruzi-derived neurotrophic agents and methods of use therefor” (Tufts University, priority 2006, published 2009).
“Also recorded” adds a separate entry of the source. Read-outs that look alike come from different tables or passages of the source.

Tests used:
neuroblastoma N18 cells = assay: Neurite outgrowth assay in N18 cells; assay type: cell-based; settings: soluble or immobilized on plastic (500 μg/ml coating), 17 hours
Procedure: 96-well microtiter plates were coated overnight at 4° C. with the TS or peptides or fragments thereof, or with control proteins laminin (Ln) or bovine serum albumin (BSA) at 500 μg/ml. After removing the compounds, the plates were further incubated with 1% BSA for 1 hour at room temperature and immediately used as substratum for PC12 or N18 (Prasad, K., Biol. Rev. Camb. Philos. Soc., 66:431-451 (1991)) cells in serum-free RPMI/0.2% BSA. Neurite outgrowth was measured using a phase-contrast microscope 17 hours later.

PC12 cells [1] = assay: Protection of PC12 cells from apoptosis induced by trophic factor withdrawal (DAPI, TUNEL); assay type: cell-based
Description: PC12 cells were obtained from ATCC (Manassas, Va. (Accession No. CRL-1721)) and cultured on collagen-coated dishes in RPMI 1640 supplemented with 10% horse serum and 5% fetal bovine serum (Greene, L., and Tishler, A., Proc. Natl. Acad. Sci. USA, 73:2424-2428 (1976)). For differentiation and survival experiments, cells were washed three times in serum-free RPMI/0.2% BSA, plated in the same medium in collagen-coated plastic dishes at 2×10^5/ml, without and with growth factors, TS, recombinant proteins, synthetic peptides, for the time and concentrations indicated in the Figures.
Cell staining with 4,6-diamino-2-phenylindole (DAPI). Cells were fixed with 4% formaldehyde in PBS for 5 minutes, washed with PBS, stained with 10 μg/ml DAPI (Sigma) for 2 minutes, washed with PBS, and visualized under UV light using a fluorescent microscope. About 300-400 cells were examined under the microscope to determine the percentage of apoptotic cells.
Cell DNA nick end labeling (TUNEL) (Gavrieli, Y. et al., J. Cell. Biol., 119:493-501 (1992)) assay was performed using a kit purchased from Boehringer Mannheim as described by the manufacturer.
Protection against apoptosis of PC12 cells in serum-free medium containing a test agent (agent N) (e.g., protection induced by TS, TS fragments, NGF or other growth factors), was calculated by the formula: 100%−[(apoptosis(%) of cells kept in RPMI containing test agent N÷apoptosis (%) of cells kept in RPMI)×100%]. Testing the effect of Wortmannin (Sigma) and LY294002 (Sigma) in inhibiting the neuroprotection of TS was performed following the protocol described by others (Yao, R., and Cooper, G., Science, 267:2003-2006 (1995); D'Mello, et al., J. Neurosci., 17:1548-1560 (1997)). In brief, PC12 cells were switched from growth medium to RPMI without and with TS or various other growth factors. After 24 hours, Wortmannin and LY294002 were added to the cultures. After another 24 hours, cells were examined for apoptosis by the DAPI assay, as above.

Trans-sialidase assay = assay type: biochemical
Procedure: The trans-sialidase assay was performed as described (Scudder, P. et al., J. Biol. Chem., 268:9886-9891 (1993)) with slight modifications. Various amounts of intact enzyme or enzyme fragments were added to 50 mM PBS, Ph 7.2, containing 15% fetal calf serum and […] of [^14C]N-acetyllactosamine (4×10^5 dpm), 50 μg BSA and 0.02% NaN3 in a volume of 60 μl. After incubation for a predetermined amount of time at room temperature, the reaction mixture was diluted to 1.0 ml with distilled water and applied to a column containing 1.0 ml Q-Sepharose equilibrated with water. Sialylated product was eluted with 1 M NaCl and quantified by scintillation counting.
TS enzymatic activity was measured by the sialylation of the acceptor ^14C-labeled N-acetyllactosamine on anion exchange resins (Scudder, P. et al., J. Biol. Chem. 268:9886-9891 (1993)). Recombinant TSA-1, was expressed on insect sf9 cells and purified from serum-free medium by ion exchange chromatography (monoQ) and preparative SDS-PAGE (Wrightsman, R. A. et al., J. Immunol., 153:3148-3154 (1994).

PC12 cells [2] = assay type: cell-based; settings: serum-free RPMI/0.2% BSA, collagen coated dishes, 16-17 hours
human Schwann cells = assay: Serum withdrawal-induced apoptosis of Schwann cells (DAPI); assay type: cell-based; settings: serum-free DMEM, 24-72 hours
IL-6 [3] = assay: IL-6 secretion by PBMC (ELISA); assay type: cell-based, human; settings: 24 hours
Procedure: (§1) Primary cultures of human intestinal microvascular endothelial cells (HIMEC) isolated from normal jejunal mucosa/submucosal tissue were prepared as described (Strong et al., Gastroenterology 114:1244-1256 (1998)). The HIMEC were cultured in fibronectin-coated plasticware in MCDB medium (Sigma) supplemented with 20% FBS, 90 μg/ml heparin and 50 μg/ml endothelial cell growth factor (Sigma). T-24 cells (ATCC Accession No. HTB-4) were cultured in M199 medium supplemented with 10% FBS. PBMC were purified by Ficoll-Paque gradient as described (Current Protocols in Immunology, pp 7.1.1-7.1.2). Vero cells (ATCC Accession No. CCL-81) were grown in RPMI medium with 5% Nu serum and infected with the Silvio X-10/4 of T. cruzi as described previously (Chuenkova et al., J. Exp. Med. 181:1693-1703 (1995)).
(§2) Endothelial cells and T-24 cells were plated on 24-well plates at a density of 1×10^3 cells/well, while peripheral blood mononuclear cells (PBMC) were plated in the similar wells at 1×10^6/well. Triplicat cultures of cells were incubated test agents for a predetermined amount of time. […] Cytokines and chemokines released in the culture supernatants were measured by ELISA assay following the instructions of the manufacturer (Endogen). The cytokines tested were IL-1β, IL-4, IL-8, […], IL-12, IFN-γ, TNF-α, and the chemokines RANTES and MCP-1. Negative controls were cells incubated in medium containing polymixin B at 10 μg/ml, and positive controls were cells incubated with bacterial LPS at the low ng/ml range (for PBMC or HIMEC) or in the μg/ml range for carcinoma T-24 cells. In some experiments, IL-1β or TNFα were used as positive control for cytokine release.
TR peptides (Table 2) were synthesized at the Tufts Synthesis Facility (Boston, Mass.). Each peptide was purified by HPLC, and the number of amino acids and molecular weight of each peptide verified by mass spectrometry. Peptides were dissolved in growth medium (10% FCS in RPMI) and added at various concentrations to 1×10^6 PBMC/well in 24-well plates. After 24 hours, IL-6 was assayed by ELISA in the conditioned supernatants.

IL-6 [4] = assay: IL-6 secretion by T-24 carcinoma cells (ELISA); assay type: cell-based, human; settings: 24 hours
Procedure: as §1, §2

Akt kinase = assay: Immunodetection and kinase assay of activated Akt in Schwann cells; settings: Western blot P-Akt (Ser473)
Procedure: Schwann cells, grown in 10% FCS to 70% confluency in 6-well plates, were switched to DMEM containing 0.1% FCS for 48 hours to reduce basal Akt phosphorylation. Then the cells were placed in serum-free DMEM medium for 2 hours and challenged with TS, CD or other test factors for predetermined periods of time. When the PI-3 kinase inhibitor LY294002 (Sigma) was used, the inhibitor was added to the serum-starved cells 30 minutes before challenge with TS or CD. Cell samples were lysed with lysis buffer (20 mM Tris, pH 7.5, 150 mM NaCl, 1 mM EDTA, 1% Triton X-100 (t-Octylphenoxypolyethoxyethanol), 2.5 mM sodium pyrophosphate, 1 mM glycerophosphate, 1 mM Na3VO4, 1 μg/ml leupeptin and 1 mM Phenymethylsulfonyl fluoride (PMSF)). Samples (40 μg) were run on 10% SDS-Page, blotted to nitrocellulose paper and analyzed by Western (immuno) blot with monoclonal antibody specific for P-Ser473 of Akt (New England Biolabs). Reaction was visualized by chemiluminescence using the ECL kit (New England Nuclear).
Enzymatic activity of Akt kinase was assessed using the synthetic substrate GSK-3α-fusion protein (Cell Signaling Technology, Beverly, Mass.), according to the protocol provided by Cell Signaling Technology. In short, lysates of Schwann cells subjected to various treatments were immunoprecipitated with Akt antibody coupled to agarose beads, and the immunoprecipitates incubated with GSK-3α-fusion protein as the substrate for Akt phosphorylation, in the presence of 200 μM ATP. Phosphorylation of GSK-3 fusion protein was detected by Western blot using phospho-GSK-3αβ (Ser21/9)-specific antibody (Cell Signaling Technology). The reaction product was identified by chemiluminescence using the ECL kit (New England Nuclear).

| Molecule | neurite outgrowth in N18 cells (neuroblastoma N18 cells) | trans-sialidase (enzymatic) activity (Trans-sialidase assay) | neurite outgrowth in PC12 cells (PC12 cells [2]) | IL-6 secretion by PBMC (IL-6 [3]) | IL-6 secretion by T-24 cells (IL-6 [4]) | further results |
| --- | --- | --- | --- | --- | --- | --- |
| TS-F-47: recombinant fragment, amino acid residues 79-666 of SEQ ID NO:34 (protein, listed as Trypanosoma cruzi) GDARDWDILLAVGEVTKSTAGGKITASIKWGSPVSLKKFFPAEMEGMHTNQFLGGAGVAIVASNGNLVYPVQVTNKRKQVFSKIFYSEDDGKTWKFGKGRSDFGCSEPVALEWEGKLIINTRVDWKRRLVYESSDMEKPWVEAVGTVSRVWGPSPKSNQPGSQTSFTAVTIEGMRVMLFTHPLNFKGRCVRDRLNLWLTDNQRIYNVGQVSIGDENSAYSSVLYKDDKLYCLHEINTDEVYSLVFARLVGELRIIKSVLRSWKNWTATCPAFAPLLIQPLRRQRVVVVPLSPRLVLLAFCRQRLPKRMGGSYRCVNASTANAERVRNGLKFAGVGGGALWPVSQQGQNQRYRFANHAFTLVASVTIHEAPRAASPLLGASLDSSGGKKLLGLSYDEKHQWQPIYGSTPVTPTGSWETGKRYHLVLTMANKIGSVYIDGELLEGSGQTVVPDGRTPDISHFYVGGYKRSDMPTISHVTVNNVLLYNRRQLNTEEIRTLFLSQDLIGTEAHMDSSSDSSAHSTPSTPADSSAHSTPSTPVDSSAHSTPSTPADSSAHGTPSTPVDSSAHGTPSTPADSSAHGTPSTPVDS | as effective as the native enzyme in stimulating neurite outgrowth; also recorded: active both in stimulating neurite outgrowth | enzymatically inactive | – | – | – | protection of PC12 cells from apoptosis induced by trophic factor withdrawal (PC12 cells [1]; serum-free RPMI-1640/0.2% BSA, 17 hours, DAPI or TUNEL): active |
| LTR: recombinant full-length C-terminal long tandem repeat of TS clone 7F (protein) NRRQLNTEEIRTLFLSQDLIGTEAHMDSSSDSSAHSTPSTPADSSAHSTPSTPVDSSAHSTPSTPADSSAHGTPSTPVDSSAHGTPSTPADSSAHGTPSTPVDSSAHSTPSTPVDSSAHSTPSTPVDSSAHGAPSTPADSSAHGTPSTPVDSSAHGTPSTPADSSAHSTPSTPADSSAHSTPSTPADSSAHSTPSTPVDSSAHGTPSTPADSSAHSTPSTPADSSAHGTPSTPVDSSAHSTPSTPVDSSAHGTPSTPVDSSAHSTPSTPVDSSAHGTPSTPVDSSAHSTPSTPADSSAHSTPSTPADSSAHGTPSTPVDSSAHSTPSTPADSSAHSTPSTPVDSSAHSTPSTPADSSAHGTPSTPVDSSAHGTPSTPADSSAHSTPSTPADSSAHSTPSTPADSSAHSTPSTPVDSSAHSTPSTPADSSAHSTPSTPADSSAHSTPSTPADSSAHSTPSTPVDSSAHSTPSTPADSSAHGTPSTPADSSAHSTPSTPVDSSAHSTPSTPADSSAHGTPSTPADSSAHSTPSTPADSSAHGTPSTPADSSAHSTPSTPAGSSANGTVLILPDGAALSTFSGGGLLLCACALLLHVFFMAVF | did not induce neurite outgrowth | – | did not induce neurite outgrowth | upregulated IL-6 release | effectively induced release of IL-6 in a dose-dependent manner; also recorded: dose dependent secretion of IL-6 | inhibition of serum withdrawal-induced apoptosis of Schwann cells (human Schwann cells): did not promote Schwann cell survival; phosphorylation (activation) of Akt kinase in Schwann cells (Akt kinase): nor activate PI3K/Akt signaling |
| TS-H32 (protein, listed as Trypanosoma cruzi) KKKQVFSKIFYSEDDGKTWKFGEGRSAFGCSEAVALEWEGKLIINTRVDYRRRLVYESSDMGNTWLEAVGTLSRVWGPSPKSNQPGSQSSFTAVTIEGMRVMLFTHPLNFKGRWLRDRLNLWLTDNQRIYNVGQVSIGDENSAHSSVLYKDDKLYCLHEINSNEVYSLVFARLVGELRIIKSVLQSWKNWDSHLSSICTP | – | enzymatically-inactive | – | stimulating IL-6 secretion | stimulating IL-6 secretion | – |
| NGF: Mouse 7S nerve growth factor (protein) SSTHPVFHMGEFSVCDSVSVWVGDKTTATDIKGKEVTVLAEVNINNSVFRQYFFETKCRASNPVESGCRGIDSKHWNSYCTTTHTFVKALTTDEKQAAWRFIRIDTACVCVLSRKATRRG | – | – | induces neurite outgrowth | – | – | PC12 cells protected from apoptotic death (PC12 cells [1]; NGF at 0.5 ng/ml): 18% |
| TS-Cat-47: recombinant fragment consisting of amino acid residues 79-415 of TS (SEQ ID NO:2) (protein, listed as Trypanosoma cruzi) MVAIADARYDTSNDNSLIDTVAKYSVDDGETWETQIAIKNSRVSSVSRVVDPTVIVKGNKLYVLVGSYYSSRSYWSSHGDARDWDILLAVGEVTKSTAGGKITASIKWGSPVSLKKFFPAEMEGMHTNQFLGGAGVAIVASNGNLVYPVQVTNKKKQVFSKIFYSEDDGKTWKFGKGRSDFGCSEPVALEWEGKLIINTRVDWKRRLVYESSDMEKPWVEAVGTVSRVWGPSPKSNQPGSQSSFTAVTIEGMRVMLFTHPLNFKGRWLRDRLNLWLTDNQRIYNVGQVSIGDENSAYSSVLYKDDKLYCLHEINTDEVYSLVFARLVGELRIIKSVL | inactive in stimulating neurite outgrowth; also recorded: did not promote neurite outgrowth | – | – | – | – | – |
| cruzipain: T. cruzi protease (protein, UniProt P25779 123-467, looked up) Cruzipain: APAAVDWRARGAVTAVKDQGQCGSCWAFSAIGNVECQWFLAGHPLTNLSEQMLVSCDKTDSGCSGGLMNNAFEWIVQENNGAVYTEDSYPYASGEGISPPCTTSGHTVGATITGHVELPQDEAQIAAWLAVNGPVAVAVDASSWMTYTGGVMTSCVSEQLDHGVLLVGYNDSAAVPYWIIKNSWTTQWGEEGYIRIAKGSNQCLVKEEASSAVVGGPGPTPEPTTTTTTSAPGPSPSYFVQMSCTDAACIVGCENVTLPTGQCLLTTSGVSAIVTCGAETLTEEVFLTSTHCSGPSVRSSVPLNKCNRLLRGSVEFFCGSSSSGRLADVDRQRRHQPYHSRHRRL | – | – | did not induce neurite extension | – | – | neurite outgrowth in PC12 cells (PC12 cells [2]; listed as cruzipan): ineffective |
